In assay [1] the target is replisome assembled in vitro on origin DNA (CMG-containing) (S. cerevisiae) (UniProt P29469).
In assay [2] the target is T1, Cdc45-MCM-GINS (CMG) helicase (S. cerevisiae, UniProt P29469 1-868; P24279 1-971; P30665 1-933; P29496 1-775; P53091 1-1017; P38132 …).
T1 construct: Mcm2, S. cerevisiae, subunit of MCM in CMG; Mcm3, S. cerevisiae, subunit of MCM in CMG; Mcm4, S. cerevisiae, subunit of MCM in CMG; Mcm5, S. cerevisiae, subunit of MCM in CMG; Mcm6, S. cerevisiae, subunit of MCM in CMG; Mcm7, S. cerevisiae, subunit of MCM in CMG; Cdc45, S. cerevisiae, subunit of CMG; Psf1, S. cerevisiae, subunit of GINS in CMG; Psf2, S. cerevisiae, subunit of GINS in CMG; Psf3, …
Briefly: co-sedimentation; 10-30% glycerol gradient without cross-linker; 0.5 μM CMG with 1.5 molar excess of fork DNA, Csm3/Tof1 (or mutant), Ctf4 and Mrc1; 500 μM AMP-PNP, 3 mM Mg(OAc)2, 150 mM NaOAc, pH 7.5; 200,000g, 4°C, 2 h; silver-stained SDS-PAGE of fractions. Particulars: both partners purified.

For the next assay, the target named is T2, Cdc45 (S. cerevisiae, UniProt Q08032 1-650).
T2 construct: Cdc45, S. cerevisiae, subunit of CMG; source: S. cerevisiae, overexpressed, purified as part of CMG; in XL-MS part of the co-expressed, co-purified complex (yJY74)
T2 sequence: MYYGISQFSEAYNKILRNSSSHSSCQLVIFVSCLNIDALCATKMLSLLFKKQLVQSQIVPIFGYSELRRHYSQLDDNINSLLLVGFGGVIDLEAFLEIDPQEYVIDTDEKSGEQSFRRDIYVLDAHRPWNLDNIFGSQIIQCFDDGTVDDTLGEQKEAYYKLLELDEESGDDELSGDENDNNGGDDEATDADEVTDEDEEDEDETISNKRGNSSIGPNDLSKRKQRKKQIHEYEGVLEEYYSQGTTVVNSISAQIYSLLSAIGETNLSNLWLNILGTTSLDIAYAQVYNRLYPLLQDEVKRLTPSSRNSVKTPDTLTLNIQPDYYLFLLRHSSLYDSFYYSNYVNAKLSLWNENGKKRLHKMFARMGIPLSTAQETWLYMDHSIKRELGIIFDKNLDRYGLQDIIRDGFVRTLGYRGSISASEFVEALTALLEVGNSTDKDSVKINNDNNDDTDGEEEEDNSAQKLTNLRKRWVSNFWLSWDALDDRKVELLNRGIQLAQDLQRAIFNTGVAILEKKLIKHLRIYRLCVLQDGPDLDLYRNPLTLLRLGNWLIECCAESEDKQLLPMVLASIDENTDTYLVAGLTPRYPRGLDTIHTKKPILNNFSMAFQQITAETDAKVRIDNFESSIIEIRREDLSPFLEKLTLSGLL
Briefly: cryo-EM structure; reconstituted from purified CMG, fork DNA, Csm3/Tof1, Ctf4, Mrc1 with AMP-PNP; glycerol gradient fixation (glutaraldehyde and BS3). The following applies: both partners purified.

These results are taken from PMC7276988, “Cryo-EM Structure of the Fork Protection Complex Bound to CMG at a Replication Fork” (Molecular Cell, 2020).

replisome assembled in vitro on origin DNA (CMG-containing) (S. cerevisiae), sequence (P29469 whole entry, looked up): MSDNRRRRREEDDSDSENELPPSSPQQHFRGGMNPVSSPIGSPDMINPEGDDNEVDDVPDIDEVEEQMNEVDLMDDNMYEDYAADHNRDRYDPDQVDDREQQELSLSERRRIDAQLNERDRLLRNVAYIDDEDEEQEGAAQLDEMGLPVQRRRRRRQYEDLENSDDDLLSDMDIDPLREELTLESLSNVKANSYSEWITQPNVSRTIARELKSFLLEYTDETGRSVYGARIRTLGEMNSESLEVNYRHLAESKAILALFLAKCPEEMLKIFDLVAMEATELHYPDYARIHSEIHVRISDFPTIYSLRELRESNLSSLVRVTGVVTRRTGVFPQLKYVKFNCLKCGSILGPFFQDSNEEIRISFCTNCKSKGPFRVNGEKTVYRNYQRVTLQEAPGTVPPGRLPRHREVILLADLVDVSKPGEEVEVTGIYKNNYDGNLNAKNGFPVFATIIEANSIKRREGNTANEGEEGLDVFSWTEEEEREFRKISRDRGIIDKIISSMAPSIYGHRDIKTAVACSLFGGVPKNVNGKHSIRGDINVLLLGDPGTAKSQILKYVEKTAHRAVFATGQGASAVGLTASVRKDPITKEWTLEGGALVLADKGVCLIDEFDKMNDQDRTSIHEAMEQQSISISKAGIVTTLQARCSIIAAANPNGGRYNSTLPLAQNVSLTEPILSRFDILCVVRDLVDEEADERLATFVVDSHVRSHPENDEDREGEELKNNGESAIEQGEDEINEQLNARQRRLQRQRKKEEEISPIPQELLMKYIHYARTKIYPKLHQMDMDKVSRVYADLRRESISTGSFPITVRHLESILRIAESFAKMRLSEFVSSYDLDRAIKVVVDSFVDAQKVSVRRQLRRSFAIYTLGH

Consider “Csm3/Tof1 heterodimer (from UniProt Q04659 1-317; P53840 1-1238) (complex)”, for which the concentration of Csm3/Tof1 that saturates origin-dependent replication (Figure S10H) in assay [1] was found to be 10 nM.

B1: Mrc1 (natural protein, S. cerevisiae, UniProt P25588 1-1096, looked up)
chain: MDDALHALSSLTAKKRTTTYKKVAVPILDENDNTNGNGPNDIDNPPELTGNGFLFANATLNRVKNRLEGKKAPEQNHNNGKDRSENSLPTQLISNLYDGGEELEKSEVKDNSYSEKNVSSSFTQTQRIPVSIQQDKVFNVPIHSVNDGKPTQLIKEDGLVNETSQALKTPLTTGRPGATQRIDSSGATSQTQPIKSIEPQSQIITTSSNHSNALSPKIPIIPTELIGTSPLFQSIQNRGPDTQMDVPPQTAHDEDKTQAIGIPQATHQEQKTQIDTVAQTLQDEVPHTLKIREIQSELASEDSKREKARNVEYKKPQKPIPTKKFFSKESFLADFDDSSSNEDDDIKLENAHPKPVQNDDELHENKSVELNLTDETRINEKRVPLLSSYANNLKREIDSSKCITLDLDSDSDEYGDDDMDSIKLSKDESVLPISQLSKATILNLKARLSKQNQKLSQRPNKSKDPKVDHNVLLNTLRKASRKQILDHQKEVIETKGLKLEDMAKEKEIVENLLEQEILRNKRIRQKEKRREKLEENDFQLNAHDSGSDSGSESSGFALSGNEIADYESSGSENDNRRESDSEKEDDEIILKQKKSHHVKHIINESDSDTEVEAKPKEKADESLPKRIAINLGHYGDNIGEDTDKFQETNVLDTQNIEEVMAERNTIENEVKDDVYVNEEADEAIRRQLIDKEKLQLKQKEKEHEAKIKELKKRGVTNFFEMEAEESEDEWHGIGGADGEGSDDYDSDLEKMIDDYSKNNFNPHEIREMLAAENKEMDIKMINKILYDIKNGGFRNKRAKNSLELELSDDDEDDVLQQYRLKRRELMRKRRLEIGDDAKLVKNPKSSAFFESMVEDIIEYKNPFGAEEEYNLDITSTATDLDTQDNSINVGDNTGNNEQKPVDQKNKKVIISEDFVQKSLSFLKSNNYEDFETDKELSRIQHGNDEAIEDLYTLKQNSSIKSFTNSQTDSTTSKTVNTIIDLEKRPEDEDEVENGDTSLVGVFKHPSIIKSFASRTDINDKFKEGNKTVKILKSYKTVGSSKASITYMGKTRKLIAPKRKTEGSHRYHHDHHNKKMKMKTKTKSNKLFESGQDSFDN
notes: Mrc1, S. cerevisiae; printed as a 125 kDa protein; The FLAG purification is told for the separately purified protein; source: S. cerevisiae, overexpressed at 20°C, purified (anti-FLAG M2, Superose 6)
For B1, the “stoichiometry N” value in assay [2] was around 1 Mrc1 per complex.

B2: Csm3^(K47A, R48A, R49A, Q51A, K53A)/Tof1^(K400A, R401A, K404A) (complex, S. cerevisiae)
chain 1: MDQDFDSLLLGFNDSDSVQKDPTVPNGLDGSVVDPTIADPTAITARAAAPAVALTAEKLLSDKGLPYVLKNAHKRIRISSKKNSYDNLSNIIQFYQLWAHELFPKAKFKDFMKICQTVGKTDPVLREYRVSLFRDEMGMSFDVGTRETGQDLERQSPMVEEHVTSAEERPIVADSFAQDKRNVNNVDYDNDEDDDIYHLSYRNRRGRVLDERGNNETVLNNVVPPKEDLDALLKTFRVQGPVGLEENEKKLLLGWLDAHRKMEKGSMTEEDVQLIQSLEEWEMNDIEGQHTHYDLLPGGDEFGVDQDELDAMKEMGF
chain 2: MSADLQQGTTNAADFSLTVLRARIALLATAIGGPDYTSQIDPPPYKLGDDCLACLKDLKRWFKLVDDQQKRWDVAMAVAEYRILTDDLLPILIDWENKCSLAAKLAKNNPDHEEFRNKAYYDKIALNCLQLLVLMTWPLIVTEQSSSNQITLYGELKKHQLVYKKTILSMESGKVLRAAIRLALDVIKIDRLSRTPRDNMVLKLVLNFFRNVIAIEPGEFTINTKKSMPKKGITSIDTLPPNVSMDDISLNTVISSFHKNKVFGFLLTLTSSLSKEFDQDFINIPLLEIMFYFTKDVNQELLFPRQFETGTHSKVVNKNESSSANNIVTSAGFELSKLLQKEHQMRKNVIKHTSARHSRFGGLLSIQTPDKTRLTVSGSQALVDEKIALQKLDDSKKWNAAIIAKHQSVAAEGLPNSLLNSQTGKAIFFTESNGKHFKEFINNFIDSGFNILLHSVTNYFTTEQDRMVTLEQVEYLLFFAWFVKYQLLRSKIDNSADIKQVSEALKEVTFILVSSLLRSAYDLKNWTVTHAGMIAFNELLNLVSRTKAAQEEDSTDIEFIVSRLFSDERIQLLSNLPKIGSKYSLQFMKSCIELTHSVLKVLEQYSDDKTLVIEGKSRRQKKFNISEGDITKLIEEENVDRDEALDILTSSLRSIEVNFQKVQANYMTEPVIETYINFLERFRELEDDSIKKVFSFFHRVFVQAKEQALLFRFDLIILLREMLSPDGLDRMSRSRKYVSQFSDYFLARLKKRLKKSPAWFVGLLFPPLHNSEVGFYQRYGEYNVLNNESMYAAPASQFKPIPDEEALPPSILLDMKYGVLVSTLLDDGKTELLDQLLKHITHTLDIFKSWLTVNVNAGKETVNPPNEYFTLTGVLNNDPIFKDKDYRALLLLIGYSIPRKINEPCFLPGTVEVSDLTVSCELVKKYLSTPFETPNGLPSSSYLLRVRSEKDSFSHNEQDGWEGDDDYDYNDPYIVPDDQILSKSDAAYFKDLDNNASDKLKGTKFSKGIARSKKKDKRKRRKGEAKTNLPMFGDQDDERPQTVRERHGVFSKEFISDSEDDEDLMNPIFFENETYMRWLLDKNNGQLTEDRYIQFAKFAAERMNNGGVVTGDYTSLFGGSIPSIESIRATESSSFAPDKSLISLASHVASEMSIFDVNNNNNNQLSDDDVNSESRNSLGSSQPSNSQNMFQSEVYSRKESTKRSLEASAADESDEDEEAIRLFGKKSRVVLSQGDSDD
notes: also called Csm3-5A/Tof1-3A; source: S. cerevisiae, overexpressed, purified as a heterodimer
As for B2, in assay [2], the binding result is “binds”.

B3: Psf2 (natural protein, S. cerevisiae)
chain: MSLPAHLQQTFSPEEIQFIVENEPIKIFPRITTRQKIRGDDRGTGNHTRWQLITTDDKALNNMVAMRSTEVVLWIALLLKQQSKCSIVAPQWLTTKELDRKIQYEKTHPDRFSELPWNWLVLARILFNKAKDDFHDPIHELRGKIQDLREIRQIKVLKGLKYLNESHLQLDNLSLLEINELRPFITEIMDKLREIHTASLTAGTENDEEEFNI
notes: also called GINS subunit Psf2; source: S. cerevisiae, overexpressed, purified as part of CMG
Regarding B3, in the assay with Cdc45, the binding result is “binds”.
